Data published in doi:10.1101/2020.10.30.361790.
Square brackets hold non-standard residues; d marks the D form. Ends that are not written are not given here. * marks the point of attachment. Biotin = O=C1N[C@H]2[C@H](CS[C@H]2CCCCC(=O)*)N1; pY = N[C@@H](Cc1ccc(OP(=O)(O)O)cc1)C(=O)O; Ahx = NCCCCCC(=O)O

B1: biotin-ahx-ahx-EPQpYEEIPIYL (peptide)
peptide: {Biotin-Ahx-Ahx}-EPQ[pY]EEIPIYL

Assays:
[1] = target: fluorescein-ahx-ahx-EPQpYEEIPIYL; experiment: fluorescence polarisation
[2] = target: biotin-ahx-ahx-EPQpYEEIPIYL; experiment: BLI
[3] = target: fluorescein-ahx-ahx-GGpYGG; experiment: fluorescence polarisation
[4] = target: Fyn SH2 variant V10 (T4V/K8L), His-tag protein (human); experiment: ELISA
[5] = target: Fyn SH2 variant V3 (T3S/T4W/A5G), His-tag protein (human); experiment: ELISA
[6] = target: Fyn SH2 variant V17 (T4N/A5S/K8L), His-tag protein (human); experiment: ELISA
[7] = target: Fyn SH2 variant V13 (T3S/T4R/S6A/K8L), His-tag protein (human); experiment: ELISA
[8] = target: Fyn SH2 triple mutant superbinder (T4V/S6A/K8L), His-tag protein (human); experiment: ELISA
[9] = target: 9 of the 22 variants that have the K8L mutation (His-tag proteins); experiment: ELISA
[10] = target: Fyn SH2 variant V24 (T3S/T4S/S6A/K8L), His-tag protein (human); experiment: ELISA

Row | Molecule | Kd [1] [nM] | Kd [2] [nM] | koff [2] [s⁻¹] | Kd [3] [nM] | other results
1 | wild type human Fyn SH2 domain (Cys-less), His-tag protein (from UniProt P06241 149-246) (domain or fragment) | 327 | 154 | 0.01 |  | kon [2]: 64800 M⁻¹ s⁻¹
2 | Fyn SH2 variant V17 (T4N/A5S/K8L), His-tag protein (designed binder) | < 40 |  |  |  | fold affinity increase over the wild type Fyn SH2 domain [1]: 4 fold; fold weaker than the triple mutant [1]: 4 fold
3 | Fyn SH2 variant V13 (T3S/T4R/S6A/K8L), His-tag protein (designed binder) | 12 |  |  | 620 | 
4 | Fyn SH2 variant V24 (T3S/T4S/S6A/K8L), His-tag protein (designed binder) | 23 |  |  | 2570 | 
5 | Fyn SH2 variant V3 (T3S/T4W/A5G), His-tag protein (designed binder) | 38 | 55 | 0.000463 | 1630 | 
6 | Fyn SH2 triple mutant superbinder (T4V/S6A/K8L), His-tag protein (designed binder) | 20 | 55 | 0.000888 | 680 | kon [2]: 16300 M⁻¹ s⁻¹
7 | Fyn SH2 variant V10 (T4V/K8L), His-tag protein (designed binder) | 32 |  |  | 2700 | 
8 | B1 |  |  |  |  | EC50 [4]: 175 nM; EC50 [5]: 15 nM; EC50 [6]: < 200 nM; EC50 [7]: < 200 nM; EC50 [8]: 21 nM; EC50 [9]: 21 to 500 nM; EC50 [10]: < 200 nM
